Experimental findings from the DeepSol protein solubility set are described below.

This data set can be described thus: soluble on expression in E. coli; label from the status in PepcDB or PDB records.
“GSMNDRDFMRYSRQILLDDIALDGQQKLLDSQVLIIGLGGLGTPAALYLAGAGVGTLVLADDDDVHLSNLQRQILFTTEDIDRPKSQVSQQRLTQLNPDIQLTALQQRLTGEALKDAVARADVVLDCTDNMATRQEINAACVALNTPLITASAVGFGGQLMVLTPPWEQGCYRCLWPDNQEPERNCRTAGVVGPVVGVMGTLQALEAIKLLSGIETPAGELRLFDGKSSQWRSLALRRASGCPVCGGSNADPV”: the “soluble on expression in E. coli” value was “soluble”.

“MEAKTNTFLLVAERWWNVKKTSVTEDYADDIWRSLERDIFPAIGDISITEIKAHTLVKAVQPVQARGALETVRRLCQRINEVMIYAQNTGLIDAVPSVNIGKAFELEHHHHHH”: the “soluble on expression in E. coli” value is recorded as “not soluble”.

In the case of “SATSTTIAKHIGNSNPLIDHHLGADPVALTYNGRVYIYMSSDDYEYNSNGTIKDNSFANLNRVFVISSADMVNWTDHGAIPVAGANGANGGRGIAKWAGASWAPSIAVKKINGKDKFFLYFANSGGGIGVLTADSPIGPWTDPIGKPLVTPSTPGMSGVVWLFDPAVFVDDDGTGYLYAGGGVPGVSNPTQGQWANPKTARVIKLGPDMTSVVGSASTIDAPFMFEDSGLHKYNGTYYYSYCINFGGTHPADKPPGEIGYMTSSSPMGPFTYRGHFLKNPGAFFGGGGNNHHAVFNFKNEWYVVYHAQTVSSALFGAGKGYRSPHINKLVHNADGSIQEVAANYAGVTQISNLNPYNRVEAETFAWNGRILTEKSTAPGGPVNNQHVTSIQNGDWIAVGNADFGAGGARSFKANVASTLGGKIEVRLDSADGKLVGTLNVPSTGGAQTWREIETAVSGATGVHKVFFVFTGTGTGNLFNFDYWQFTQR”, the “soluble on expression in E. coli” value is listed as “soluble”.

With “MSKIETPVMTSLQTTAEKMMKDLNVPGAAVAVIKDGEVIISEGFGYRNIETKEAVTPNTRFAIGSSTKAFGTLSLSLLAQQKKFNWDTPIQSYIPNFTLSELLASSQVTGRDLASHRTGVSRHEALWYSSSLSRKDLVEKIKHLPLDAPFRTAFLYNNLMYATISYIVENITNQTWEQYTTEHILEPLNMRHTNFSVNDSQTTDDYALPYIENDGEIKAVPFRNIDTVGAAGCINSTIEDMANWVLLHLNEGKFGDHELISSELLQQMYTPHNSIPDQPVLSLPESPLNSYGLGWFISAYRGKKVIHHGGNIDGFSALVSFIPTENIGLVILTNAGGTLLPTYLANQIYDELLELESIDWHKRAVEDTKKMKEMMKEATESLPEQIKGTTPSHKLEDYTGTFEHPAYGTLQVYKRDDSLYVQFMEMDIQLGHHHYDIFSAKVDLFQMKMSLLFAYEMNVSGEFPSLQLHVPATLSTQPLTFKKIK”, the “soluble on expression in E. coli” value is on record as “not soluble”.

Consider “MIDVPFLKNVTLKKENIPSFSAYPYCLPAIRTLQSLAFHPNVTFIIGENGTGKSTLLEGIAIALGFNAEGGTKNFRFSTNDSHSSLHEYLRISKSFNTPSDGFFLRAESFYNVASYIDEIDADLEARGNPVIDSYGGISLHEQSHGESFFSLFMNRFSGQGLYILDEPEAALSPMRQLSMLIRMHELAEQGSQFVIATHSPILMAYPESTIYSLTQEGIQESALEDTEHYQTTKLFFENRDRLFHHLFNSLEHHHHHH”, for which the “soluble on expression in E. coli” value is “soluble”.

Turning to “GKVAKPVLLHQSSTEVSSTNQVEVPDTTQSSPVSISSGLNSDPDMVDSPVVTGVSGMAVASVMGSLSQSATVFMSEVTNEAVYTMSPTAGPNHHLLSPDASQGLVLAVSSDGHKFAFPTTGSSESLSMLPTNVSEELVLSTTLDGGRKIPETTMNFDPDCFLNNPKQGQTYGGGGLKAEMVSSNIRHSPPGERSFSFTTVLTKEIKTEDTSFEQQMAKEAYSSSAAAVAASSLTLTAGSSLLPSGGGLSPSTTLEQMDFSAIDSNKDYTSSFSQTGHSPHIHQTPSPSFFLQDASKPLPVEQNTHSSLSDSGGTFVMPTVKTEASSQTSSCSGHVETRIESTSSLHLMQFQANFQAMTAEGEVTMETSQAAEGSEVLLKSGELQACSSEHYLQPETNGVIRSAGGVPILPGNVVQGLYPVAQPSLGNASNMELSLDHFDISFSNQFSDLINDFISVEGGSSTIYGHQLVSGDSTALSQSEDGARAPFTQAEMCLPCCSPQQGSLQLSSSEGGASTMAYMHVAEVVSAASAQGTLGMLQQSGRVFMVTDYSPEWSYPEGGVKVLITGPWQEASNNYSCLFDQISVPASLIQPGVLRCYCPAHDTGLVTLQVAFNNQIISNSVVFEYKARALPTLPSSQHDWLSLDDNQFRMSILERLEQMERRMAEMTGSQQHKQASGGGSSGGGSGSGNGGSQAQCASGTGALGSCFESRVVVVCEKMMSRACWAKSKHLIHSKTFRGMTLLHLAAAQGYATLIQTLIKWRTKHADSIDLELEVDPLNVDHFSCTPLMWACALGHLEAAVVLYKWDRRAISIPDSLGRLPLGIARSRGHVKLAECLEHLQRDEQAQLGQNPRIHCPASEEPSTESWMAQWHSEAISSPEIPKGVTVIASTNPELRRPRSEPSNYYSSESHKDYPAPKKHKLNPEYFQTRQEKLLPTALSLEEPNIRKQSPSSKQSVPETLSPSEGVRDFSRELSPPTPETAAFQASGSQPVGKWNSKDLYIGVSTVQVTGNPKGTSVGKEAAPSQVRPREPMSVLMMANREVVNTELGSYRDSAENEECGQPMDDIQVNMMTLAEHIIEATPDRIKQENFVPMESSGLERTDPATISSTMSWLASYLADADCLPSAAQIRSAYNEPLTPSSNTSLSPVGSPVSEIAFEKPNLPSAADWSEFLSASTSEKVENEFAQLTLSDHEQRELYEAARLVQTAFRKYKGRPLREQQEVAAAVIQRCYRKYKQLTWIALKYALYKKMTQAAILIQSKFRSYYEQKKFQQSRRAAVLIQKYYRSYKKCGKRRQARRTAVIVQQKLRSSLLTKKQDQAARKIMRFLRRCRHSPLVDHRLYKRSERIEKGQGT”, the “soluble on expression in E. coli” value was “soluble”.

Take “LVGDFERELGRLLSPFELEDLQKTLQEDQTDPDIVRAALREAVFNGKTSWNYINAILRNWRREGLTTLRQIEERKQAREDNQMKDLAISDDFKNAMNLWE”: the “soluble on expression in E. coli” value is reported as “not soluble”.

Take “MGISPDAASKLYTVKFQPDPIDKKGWSVIDFNNCCTQDGGWYLNMGWGVESLIDNNPGTQWLCRWDVKEPLPYYFVFDMGKEYTLFRFGFANPVAPAAHVWAGTSKAGYVEASIDNENWVKLKDWTSPKIGEPNVNMDVPATQARYIRFVITDTYPTYDGLRVSLGEVYAWGLEHHHHHH”: the “soluble on expression in E. coli” value is “soluble”.

As to “MKIKVISRNPNTYQRETTDKRNKIVRNFNTPADPFRSQVEYTRALNATKLERVFAKPFVASLDGHVDGVQVLAKHPNRPSTVFSGARDGQVKIWNLASRECQATLDAHRGLVNDISIDNNNGENFVTVGQDNQLKYWKIEGQQKTPAHSIAMDGIVYGVSHLSFSSDFVTCGEDISVWKPYRETPLRSYNLGTDTIHTCRANPVEENVIVGARSDRSIYVLDTRQDVPLKKVTMKMRPNKISWNPMEAYNFTVASEDYSLYTFDMRYMEHPVQSHQGFTSAVLDVDYSPTGQEFVAAGYDRSIRLFKARDMTSRDVYYTKRMASVLSVLWSADSKFVLSGSNEMNIRVWKANAAEKLGPLTKREKQAFAYNEKLRDTYKNHPEVRRIAKHRNVPRHIFTAAKEHKLIRDARGRRDFRRAKAAGLDEEESYLPQTQKIMVGDAEM”, the “soluble on expression in E. coli” value was “not soluble”.

On to “SPDEIAQVRFLIVGRTGWIANMVAELLEQRGERYAFASFRLEQREACERELDALRPQRVLNVLGSLGVRTSTGARTTGARPSAVTYWAC”, for which the “soluble on expression in E. coli” value is reported as “soluble”.

Take “MERARVIAEAAAHISRELGAAAIMVSGDLNFEGIETGEIPVYYISMRPKSIIDHLVATSKDGKSPVKELGDQLTREASGNVEYVQHAAAIEYALEGPKNGIVVGVIETRGSSSIIVHNLDDNPLIKAMKECEERVNPEVMNAVLKIAFDIALTGREGKKIGAAFIVGDSEEVLKRSHQIILNPYEGHEEAHRNILDRRNWESIKEFALLDGVFVIDETGIVRAAGRYLDVDGKNIDIEKGLGGRHVSAAAISRDTVAISVTVSESGGVLRVYKDAKETICMESLQPASRYV”: the “soluble on expression in E. coli” value is listed as “soluble”.

Consider “MSLVDLVTEAKSSGEGVTSPYSRTEHCENIHEYRCDTRVGVIGIDVSKEHLVTSKGRVRKFTNNEKGYEEILTMKPNIIVIEPTGVYSTRPCQYFKERGVKVLLVSLAMERKGRKGKENRFLRRRKTEGHHHHHH”, for which the “soluble on expression in E. coli” value was “not soluble”.
